Test results: patent US20150191542A1 (INNATE PHARMA S A, published 2015)

T1: recombinant human MICA extracellular domain recombinant-Fc protein (MICA*019 allele) (human, UniProt Q29983 24-297)
T1 construct: Bought from R&D Systems; also called MICA*019-Fc; MICA-Fc; not shown: Fc part of the bought fusion protein (R&D Systems)
T1 chain: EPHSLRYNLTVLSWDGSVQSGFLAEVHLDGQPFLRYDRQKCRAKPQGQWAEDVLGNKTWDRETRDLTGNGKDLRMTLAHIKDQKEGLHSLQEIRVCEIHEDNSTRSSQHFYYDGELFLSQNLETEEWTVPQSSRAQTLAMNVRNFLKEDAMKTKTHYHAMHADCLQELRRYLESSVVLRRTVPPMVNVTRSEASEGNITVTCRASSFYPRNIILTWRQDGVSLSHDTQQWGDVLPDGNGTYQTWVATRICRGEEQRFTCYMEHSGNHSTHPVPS

T2: ULBP2-Fc protein (UniProt Q9BZM5 26-217, limits assumed)
T2 construct: also called ULPB2; not shown: Fc part
T2 sequence (looked up): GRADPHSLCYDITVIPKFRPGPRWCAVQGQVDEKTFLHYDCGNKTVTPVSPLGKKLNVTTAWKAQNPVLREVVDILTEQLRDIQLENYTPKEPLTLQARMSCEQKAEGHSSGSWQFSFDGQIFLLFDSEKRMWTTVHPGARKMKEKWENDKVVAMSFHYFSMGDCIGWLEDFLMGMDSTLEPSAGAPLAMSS

T3: ULBP1-Fc protein (UniProt Q9BZM6 26-216, limits assumed)
T3 construct: also called ULPB1; not shown: Fc part
T3 sequence (looked up): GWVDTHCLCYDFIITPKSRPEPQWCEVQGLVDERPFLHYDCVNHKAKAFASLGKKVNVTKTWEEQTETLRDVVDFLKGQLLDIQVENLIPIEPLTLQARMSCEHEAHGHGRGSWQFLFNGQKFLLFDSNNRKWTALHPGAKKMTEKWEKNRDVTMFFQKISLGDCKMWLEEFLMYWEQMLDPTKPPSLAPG


How the values were obtained:
[1] = target: T1, recombinant human MICA extracellular …; experiment: SPR Biacore T100, biotinylated antibody captured on CAP chip, MICA*019-Fc injected; bivalent mean KD at pH 7.4; on MICA*019-Fc; bivalent, pH 7.4
Protocol: (§1) The binding of 9C10, 20C6 and 16A8 to either recombinant human MICA extracellular domain recombinant protein monomers or dimers (MICA*019 allele-Fc protein or MICA*001-His protein) as well as other NKG2D ligands MICB and ULBP1-2 was analyzed by Surface Plasmon Resonance (SPR) using a Biacore T100 apparatus to obtain monovalent and bivalent affinity, respectively. Biotinylated anti-MICA antibodies were injected at a constant rate of 10 μl/min over the Sensor Chip CAP flow-cells comprising Biotin CAPture Reagent. MICA-Fc or MICA-His protein, MICB-Fc, ULBP1-Fc or ULBP2-Fc protein is then injected successively (range of concentrations between 0.01-100 nM), with regeneration between injections, and in increasing order over two flowcells simultaneously. Curves are fitted using Biacore T100 Evaluation software.
Antibody 16A8 bound MICA and MICB but not ULBP1 or ULBP2. Results are shown in FIGS. 1A, 1B, 1C and 1D for MICA, MICB, ULBP1 and ULPB2 respectively.

[2] = target: T2, ULBP2-Fc protein; experiment: SPR Biacore T100, biotinylated antibody captured on CAP chip, Fc protein injected
Protocol: as §1
(§2) (a) General Biacore T100 methods. SPR measurements were performed on a Biacore T100 apparatus (Biacore GE Healthcare) at 25° C. In all Biacore experiments HBS-EP+ buffer (Biacore GE Healthcare) or 10 mM sodium acetate pH 7.4, 150 mM NaCl, 0.05% P20 served as running buffer and sensorgrams were analyzed with Biaevaluation 4.1 and Biacore T100 Evaluation software. Recombinant human and mouse TLR3 were purchased from R&D Systems.

[3] = target: T3, ULBP1-Fc protein; experiment: as above
Protocol: as §1, §2

[4] = target: T1, recombinant human MICA extracellular …; experiment: SPR Biacore T100, biotinylated antibody captured on CAP chip, MICA protein injected
Protocol: as §1, §2

Kd [1]	binding result [2]	binding result [3]	binding result [4]	Binder
0.62 pM	no binding (tested: 0.01-100 nM)	no binding (tested: 0.01-100 nM)		antibody 9C10 (antibody, V domains shown, Biotinylated when captured in the SPR assays (9C10-Biot); the sites are not given., Murine hybridoma antibody of IgG2b isotype as tested; also called 9C10-Biot) VH: QVQLQQPGAELVRPGTSVNLSCKASGYSFTRYWMNWVKQRPGQGLEWIGMIHPSDSETRLNQKFKDKATLTVDKSSSTAYMQLSSPTSEDSAVYYCGYGNFFYVMDYWGQGTSVTVSS VL: DILLTQSPAILSVSPGERVSFSCRASQSIGTSIHWYQQRTNGSPRLLIKFASESISGIPSRFSGSGSGTDFTLNINSVESEDIADYYCQQSNFWPFTFGSGTKLEVK
			binds	antibody 16A8 (antibody, V domains shown, Murine hybridoma antibody of IgG2a isotype as tested; also called 16A8-Biot) VH: EVQLVESGGGLVKPGGSLKLSCAASGFTFSRYAMSWVRQTPEKRLEWVATIFSGGSYTYYPDSVKGRFTISRDNANNTLYLQMSSLKAEDTAMYFCARPNWERTFDYWGQGTTLTVSS VL: not shown
